Source: patent US20220242962A1 (APTEVO RESEARCH AND DEVELOPMENT, published 2022)

T1: Cyno OX40-AFH (cynomolgus monkey)
T1 construct: entry includes the tags; also called OXF005; cyno OX40 ECD
T1 chain: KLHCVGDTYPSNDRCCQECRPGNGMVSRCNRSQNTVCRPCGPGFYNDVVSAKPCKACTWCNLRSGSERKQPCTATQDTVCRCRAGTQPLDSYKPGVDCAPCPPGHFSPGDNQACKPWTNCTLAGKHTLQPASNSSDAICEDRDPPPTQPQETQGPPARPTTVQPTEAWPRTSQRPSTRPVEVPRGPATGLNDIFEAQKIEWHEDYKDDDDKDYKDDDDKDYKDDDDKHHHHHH

T2: Fc gamma receptor RIIB/C (human, UniProt P31994 46-217)
T2 construct: soluble SPR analyte
T2 sequence (looked up): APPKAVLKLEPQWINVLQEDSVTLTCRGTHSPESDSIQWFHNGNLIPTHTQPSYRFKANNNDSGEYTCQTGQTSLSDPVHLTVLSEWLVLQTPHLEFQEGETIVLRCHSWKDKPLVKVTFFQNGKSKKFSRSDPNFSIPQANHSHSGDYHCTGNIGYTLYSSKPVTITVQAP

T3: Fc gamma receptor RIIA H167 (human, UniProt P12318 36-218)
T3 construct: soluble SPR analyte
T3 sequence (looked up): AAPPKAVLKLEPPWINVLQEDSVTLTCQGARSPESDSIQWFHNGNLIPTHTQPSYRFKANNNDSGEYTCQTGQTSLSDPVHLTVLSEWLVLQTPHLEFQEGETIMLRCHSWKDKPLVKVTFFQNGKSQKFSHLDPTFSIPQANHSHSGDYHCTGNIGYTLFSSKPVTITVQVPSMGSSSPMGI

T4: Fc gamma receptor RIIA R167 (human, UniProt P12318 36-218)
T4 construct: soluble SPR analyte
T4 sequence (looked up): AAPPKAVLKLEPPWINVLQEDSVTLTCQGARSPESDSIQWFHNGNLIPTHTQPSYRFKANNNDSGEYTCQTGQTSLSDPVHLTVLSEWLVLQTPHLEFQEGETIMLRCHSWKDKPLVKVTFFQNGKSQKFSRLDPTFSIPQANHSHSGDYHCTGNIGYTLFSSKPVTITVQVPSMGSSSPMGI

T5: Full-length Human OX40 (human, UniProt P43489 29-277)
T5 sequence: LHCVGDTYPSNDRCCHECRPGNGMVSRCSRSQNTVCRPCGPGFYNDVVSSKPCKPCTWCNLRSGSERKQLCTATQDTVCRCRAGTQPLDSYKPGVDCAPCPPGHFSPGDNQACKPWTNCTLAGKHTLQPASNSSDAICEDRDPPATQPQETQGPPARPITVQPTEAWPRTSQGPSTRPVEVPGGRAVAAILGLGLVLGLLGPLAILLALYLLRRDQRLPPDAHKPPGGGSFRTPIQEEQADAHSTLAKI

T6: Full-length Cyno OX40 (cynomolgus monkey, UniProt P43489 29-277 (human entry))
T6 construct: on CHO-K1SV cells; also called OXF004; cynomolgus OX40
T6 chain: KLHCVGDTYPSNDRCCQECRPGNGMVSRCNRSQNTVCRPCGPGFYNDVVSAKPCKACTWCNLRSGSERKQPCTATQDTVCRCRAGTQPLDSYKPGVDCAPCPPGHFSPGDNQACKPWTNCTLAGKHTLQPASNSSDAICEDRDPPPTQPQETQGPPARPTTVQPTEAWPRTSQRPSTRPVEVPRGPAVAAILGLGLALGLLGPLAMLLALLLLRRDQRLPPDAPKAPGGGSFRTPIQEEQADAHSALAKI


Legend:
Cyno OX40-AFH = target: T1, Cyno OX40-AFH; assay: SPR (Biacore 8K), construct captured, monovalent ECD
Method: Mouse anti-human IgG (GE, BR-1008-39) at 25 μg/ml in 10 mM sodium acetate pH 5.0 was immobilized at a density of ˜10,000 response units (RU) onto each flow cell of a CM5 research-grade sensor chip (GE) by standard amine coupling chemistry. Each binding protein at approximately 100 nM in HBS-EP+ with 0.2% BSA buffer was captured in a flow cell with the immobilized anti-human IgG at a flow rate of 10 μL/min for 20 seconds, leaving one flow cell surface unmodified as the reference. Using a single-cycle kinetics mode, five different concentrations of ECD were sequentially injected through each flow cell at 30 μL/min for 300 seconds followed by a 600 second dissociation period. Regeneration was achieved by injection of 3 M MgCl₂ at a flow rate of 30 μL/min for 30 seconds followed by HBS-EP+ with 0.2% BSA buffer stabilization for 1 min.
Sensorgrams obtained from kinetic SPR measurements were analyzed by the double subtraction method. The signal from the reference flow cell was subtracted from the analyte binding response obtained from flow cells with immobilized or captured ligands. Buffer reference responses were then averaged from multiple injections. The averaged buffer reference responses were then subtracted from analyte binding responses, and the final double-referenced data were analyzed with Biacore T200 Evaluation software (2.0, GE), globally fitting data to derive kinetic parameters. All sensorgrams were fitted using a simple one-to-one binding model.
Using the BIACORE 8K SPR system, the affinity of these constructs for human and cyno 4-1BB, and human and cyno OX40 ECD, were determined using the methods described above. Monovalent binding affinity was determined by capturing the ADAPTIR™ bispecific construct on the chip and injecting monovalent ECD of the target at multiple concentrations.

Fc gamma receptor RIIB/C = target: T2, Fc gamma receptor RIIB/C; assay: SPR, construct immobilized, receptor injected at 2 uM
Method: (§1) Fcγ receptor binding to bispecific proteins was measured by Surface Plasmon Resonance on a Biacore 8K instrument at room temperature. Bispecific proteins with modified Fc regions to reduce binding to Fcγ receptors were directly immobilized on the surface of a CM5 sensor chip to a surface density of 4000 RU. A bispecific ADAPTIR™ protein with a wild type Fc was similarly immobilized to the surface as a positive control and used as a comparator to evaluate the reduction in binding resulting from changes incorporated into the Fc region amino acid sequence. Fcγ receptors (purchased from R&D Systems) were diluted to either 100 nM (FcγRI) or 2 μM (all other Fcγ receptors) in HBS-EP+ buffer before injecting over the surface of the prepared sensor chip at 30 μL/min for 60 seconds. Maximum RU values during association phase of each injection were used to compare the extent of binding of the modified Fc to wild type value and are reported in Table 17 below.

[1] = target: T3, Fc gamma receptor RIIA H167; assay: as above
Method: as §1

[2] = target: T4, Fc gamma receptor RIIA R167; assay: as above
Method: as §1

Full-length Human OX40 = target: T5, Full-length Human OX40; assay: cell-based or functional assay
Full-length Human 4-1BB = Full-length Human 4-1BB (human, UniProt Q07011 24-255); assay: cell-based or functional assay
Full-length Cyno OX40 = target: T6, Full-length Cyno OX40; assay: flow cytometry on CHOK1SV cells transfected with cynomolgus OX40, goat anti-human Fc secondary antibody, MFI (Mean)
Method: Serial dilutions of ADAPTIR™ constructs were incubated with transfected target cells and subsequently labelled with a fluorescently-conjugated goat-a-human Fc secondary antibody. […] (See Example 25.)

Full-length Human 4-1BB, sequence (Q07011 24-255): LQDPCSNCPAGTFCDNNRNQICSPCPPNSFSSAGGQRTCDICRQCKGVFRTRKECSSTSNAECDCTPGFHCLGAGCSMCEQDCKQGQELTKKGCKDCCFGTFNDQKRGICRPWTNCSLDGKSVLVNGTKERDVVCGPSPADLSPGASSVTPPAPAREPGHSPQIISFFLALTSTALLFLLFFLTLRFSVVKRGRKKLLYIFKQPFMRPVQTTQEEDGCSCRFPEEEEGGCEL

Row | Kd (Cyno OX40-AFH) [nM] | koff (Cyno OX40-AFH) [s⁻¹] | kon (Cyno OX40-AFH) [M⁻¹ s⁻¹] | Max RU value during association (Fc gamma receptor RIIB/C) [RU] | Max RU value during association [1] [RU] | Max RU value during association [2] [RU] | OX40 Reporter Assay EC50 (Full-length Human OX40) [nM] | OX40 Reporter Assay Max induction (Full-length Human OX40) | 4-1BB Reporter Assay EC50 (Full-length Human 4-1BB) [nM] | 4-1BB Reporter Assay Max induction (Full-length Human 4-1BB) | EC50 (read off the curve) (Full-length Cyno OX40) [nM] | Binder
1 | < 1 | 0.00019 | 1.5e+06 | 21 | 14 | 92 | 0.021 | 5.86e+06 | 0.017 | 1.37e+06 | ~2 | FXX01066 (bispecific antibody, ADAPTIR scFv-Fc-scFv, anti-4-1BB (VH-VL) N-terminal, anti-OX40 C-terminal, PAA (del) Fc; also called FX01066) EVQLVQSGAEVKKPGASVKVSCKASGYTFTSYWMNWVRQAPGQGLEWMGNIYPSGGSTNYAQKFQGRVTMTVDTSTSTVYMELSSLRSEDTAVYYCASFSDGYYAYAMDYWGQGTLVTVSSGGGGSGGGGSGGGGSGGGGSEIVMTQSPATLSLSPGERATLSCRASQSVSSYLNWYQQKPGQAPRLLIYYASRRHTGIPARFSGSGSGTDFTLTISSLQPEDFAVYYCQQGYNLPYTFGQGTKVEIKEPKSSDKTHTCPPCPAPPAAAPSVFLFPPKPKDTLMISRTPEVTCVVVDVSHEDPEVKFNWYVDGVEVHNAKTKPREEQYNSTYRVVSVLTVLHQDWLNGKEYKCAVSNKALPAPIEKTISKAKGQPREPQVYTLPPSRDELTKNQVSLTCLVKGFYPSDIAVEWESNGQPENNYKTTPPVLDSDGSFFLYSKLTVDKSRWQQGNVFSCSVMHEALHNHYTQKSLSLSPGGGGSPSSYVLTQPPSVSVAPGQTARITCGGNNIGSKSVNWFQQKPGQAPVLVVYDDSGRPSGIPERFSGSTSGNTATLTISRVEAGDEADYYCQVWDSSSDHVVFGGGTKLTVLGGGGSGGGGSGGGGSGGGGSQVQLVESGGGVVQPGRSLRLSCAASGFTLSYYGMHWVRQAPGKGLEWVAAISHDGSDKYYADSVKGRFTISRDNSKNTLYLQMNSLRAEDTAVYYCSNDQFDPWGQGTLVTVSSR
2 | < 1 | 0.00023 | 1.1e+06 | 19 | 13 | 88 | 0.016 | 5.78e+06 | 0.021 | 1.4e+06 | 1 to 2 | FXX01102 (bispecific antibody, ADAPTIR anti-4-1BB (HL) x anti-OX40 with Q17K and T86R; PAA (del) Fc; also called FX01102) EVQLVQSGAEVKKPGASVKVSCKASGYTFTSYWMNWVRQAPGQGLEWMGNIYPSGGSTNYAQKFQGRVTMTVDTSTSTVYMELSSLRSEDTAVYYCASFSDGYYAYAMDYWGQGTLVTVSSGGGGSGGGGSGGGGSGGGGSEIVMTQSPATLSLSPGERATLSCRASQSVSSYLNWYQQKPGQAPRLLIYYASRRHTGIPARFSGSGSGTDFTLTISSLQPEDFAVYYCQQGYNLPYTFGQGTKVEIKEPKSSDKTHTCPPCPAPPAAAPSVFLFPPKPKDTLMISRTPEVTCVVVDVSHEDPEVKFNWYVDGVEVHNAKTKPREEQYNSTYRVVSVLTVLHQDWLNGKEYKCAVSNKALPAPIEKTISKAKGQPREPQVYTLPPSRDELTKNQVSLTCLVKGFYPSDIAVEWESNGQPENNYKTTPPVLDSDGSFFLYSKLTVDKSRWQQGNVFSCSVMHEALHNHYTQKSLSLSPGGGGSPSSYVLTQPPSVSVAPGKTARITCGGNNIGSKSVNWFQQKPGQAPVLVVYDDSGRPSGIPERFSGSTSGNTATLTISRVEAGDEADYYCQVWDSSSDHVVFGGGTKLTVLGGGGSGGGGSGGGGSGGGGSQVQLVESGGGVVQPGRSLRLSCAASGFTLSYYGMHWVRQAPGKGLEWVAAISHDGSDKYYADSVKGRFTISRDNSKNRLYLQMNSLRAEDTAVYYCSNDQFDPWGQGTLVTVSSR
3 | < 1 | 0.00027 | 1.1e+06 | 21 | 14 | 94 | 0.017 | 5.89e+06 | 0.018 | 1.44e+06 | 1 to 2 | FXX01101 (bispecific antibody, ADAPTIR anti-4-1BB (HL) x anti-OX40 with T86R; PAA (del) Fc; also called FX01101) EVQLVQSGAEVKKPGASVKVSCKASGYTFTSYWMNWVRQAPGQGLEWMGNIYPSGGSTNYAQKFQGRVTMTVDTSTSTVYMELSSLRSEDTAVYYCASFSDGYYAYAMDYWGQGTLVTVSSGGGGSGGGGSGGGGSGGGGSEIVMTQSPATLSLSPGERATLSCRASQSVSSYLNWYQQKPGQAPRLLIYYASRRHTGIPARFSGSGSGTDFTLTISSLQPEDFAVYYCQQGYNLPYTFGQGTKVEIKEPKSSDKTHTCPPCPAPPAAAPSVFLFPPKPKDTLMISRTPEVTCVVVDVSHEDPEVKFNWYVDGVEVHNAKTKPREEQYNSTYRVVSVLTVLHQDWLNGKEYKCAVSNKALPAPIEKTISKAKGQPREPQVYTLPPSRDELTKNQVSLTCLVKGFYPSDIAVEWESNGQPENNYKTTPPVLDSDGSFFLYSKLTVDKSRWQQGNVFSCSVMHEALHNHYTQKSLSLSPGGGGSPSSYVLTQPPSVSVAPGQTARITCGGNNIGSKSVNWFQQKPGQAPVLVVYDDSGRPSGIPERFSGSTSGNTATLTISRVEAGDEADYYCQVWDSSSDHVVFGGGTKLTVLGGGGSGGGGSGGGGSGGGGSQVQLVESGGGVVQPGRSLRLSCAASGFTLSYYGMHWVRQAPGKGLEWVAAISHDGSDKYYADSVKGRFTISRDNSKNRLYLQMNSLRAEDTAVYYCSNDQFDPWGQGTLVTVSSR
